B1: Radial spoke head 1 homolog (Homo sapiens), Q8WYR4 (parent)
chain: MSDLGSEELEEEGENDIGEYEGGRNEAGERHGRGRARLPNGDTYEGSYEFGKRHGQGIYKFKNGARYIGEYVRNKKHGQGTFIYPDGSRYEGEWANDLRHGHGVYYYINNDTYTGEWFAHQRHGQGTYLYAETGSKYVGTWVNGQQEGTAELIHLNHRYQGKFLNKNPVGPGKYVFDVGCEQHGEYRLTDMERGEEEEEEELVTVVPKWKATQITELALWTPTLPKKPTSTDGPGQDAPGAESAGEPGEEAQALLEGFEGEMDMRPGDEDADVLREESREYDQEEFRYDMDEGNINSEEEETRQSDLQD
partner: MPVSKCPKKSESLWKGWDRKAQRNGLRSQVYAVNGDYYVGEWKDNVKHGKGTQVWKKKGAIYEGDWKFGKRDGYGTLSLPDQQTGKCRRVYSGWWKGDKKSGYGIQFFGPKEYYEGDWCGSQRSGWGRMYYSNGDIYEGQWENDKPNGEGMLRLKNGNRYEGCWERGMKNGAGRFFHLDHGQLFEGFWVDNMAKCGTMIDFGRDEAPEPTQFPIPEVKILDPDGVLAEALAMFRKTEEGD
B2: Sperm microtubule associated protein 2 (Homo sapiens), Q9P2T0 (parent)
chain: MGDSRRRSLGNQPSSEAAGRSEREQDGDPRGLQSSVYESRRVTDPERQDLDNAELGPEDPEEELPPEEVAGEEFPETLDPKEALSELERVLDKDLEEDIPEISRLSISQKLPSTTMTKARKRRRRRRLMELAEPKINWQVLKDRKGRCGKGYAWISPCKMSLHFCLCWPSVYWTERFLEDTTLTITVPAVSRRVEELSRPKRFYLEYYNNNRTTPVWPIPRSSLEYRASSRLKELAAPKIRDNFWSMPMSEVSQVSRAAQMAVPSSRILQLSKPKAPATLLEEWDPVPKPKPHVSDHNRLLHLARPKAQSDKCVPDRDPRWEVLDVTKKVVASPRIISLAKPKVRKGLNEGYDRRPLASMSLPPPKASPEKCDQPRPGL
B3: Proton-coupled zinc antiporter SLC30A2 (Homo sapiens), Q9BRI3 (parent)
chain: MEAKEKQHLLDARPAIRSYTGSLWQEGAGWIPLPRPGLDLQAIELAAQSNHHCHAQKGPDSHCDPKKGKAQRQLYVASAICLLFMIGEVVGGYLAHSLAVMTDAAHLLTDFASMLISLFSLWMSSRPATKTMNFGWQRAEILGALVSVLSIWVVTGVLVYLAVERLISGDYEIDGGTMLITSGCAVAVNIIMGLTLHQSGHGHSHGTTNQQEENPSVRAAFIHVIGDFMQSMGVLVAAYILYFKPEYKYVDPICTFVFSILVLGTTLTILRDVILVLMEGTPKGVDFTAVRDLLLSVEGVEALHSLHIWALTVAQPVLSVHIAIAQNTDAQAVLKTASSRLQGKFHFHTVTIQIEDYSEDMKDCQACQGPSD
partner: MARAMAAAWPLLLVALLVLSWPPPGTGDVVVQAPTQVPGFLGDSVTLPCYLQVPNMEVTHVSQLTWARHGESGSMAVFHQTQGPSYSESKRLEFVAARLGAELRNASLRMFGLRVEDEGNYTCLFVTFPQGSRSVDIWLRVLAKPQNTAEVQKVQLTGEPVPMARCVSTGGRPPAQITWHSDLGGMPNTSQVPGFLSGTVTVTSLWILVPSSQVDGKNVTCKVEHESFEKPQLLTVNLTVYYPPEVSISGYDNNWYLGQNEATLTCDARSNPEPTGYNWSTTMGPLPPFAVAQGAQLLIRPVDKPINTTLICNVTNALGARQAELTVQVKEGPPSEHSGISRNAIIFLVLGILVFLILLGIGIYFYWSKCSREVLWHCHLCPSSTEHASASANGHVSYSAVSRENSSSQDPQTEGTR
B4: Chondroitin sulfate N-acetylgalactosaminyltransferase 2 (Homo sapiens), Q8N6G5 (parent)
chain: MPRRGLILHTRTHWLLLGLALLCSLVLFMYLLECAPQTDGNASLPGVVGENYGKEYYQALLQEQEEHYQTRATSLKRQIAQLKQELQEMSEKMRSLQERRNVGANGIGYQSNKEQAPSDLLEFLHSQIDKAEVSIGAKLPSEYGVIPFESFTLMKVFQLEMGLTRHPEEKPVRKDKRDELVEVIEAGLEVINNPDEDDEQEDEEGPLGEKLIFNENDFVEGYYRTERDKGTQYELFFKKADLTEYRHVTLFRPFGPLMKVKSEMIDITRSIINIIVPLAERTEAFVQFMQNFRDVCIHQDKKIHLTVVYFGKEGLSKVKSILESVTSESNFHNYTLVSLNEEFNRGRGLNVGARAWDKGEVLMFFCDVDIYFSAEFLNSCRLNAEPGKKVFYPVVFSLYNPAIVYANQEVPPPVEQQLVHKKDSGFWRDFGFGMTCQYRSDFLTIGGFDMEVKGWGGEDVHLYRKYLHGDLIVIRTPVPGLFHLWHEKRCADELTPEQYRMCIQSKAMNEASHSHLGMLVFREEIETHLHKQAYRTNSEAVG
B5: Alpha-taxilin (Homo sapiens), P40222 (parent)
chain: MKNQDKKNGAAKQSNPKSSPGQPEAGPEGAQERPSQAAPAVEAEGPGSSQAPRKPEGAQARTAQSGALRDVSEELSRQLEDILSTYCVDNNQGGPGEDGAQGEPAEPEDAEKSRTYVARNGEPEPTPVVNGEKEPSKGDPNTEEIRQSDEVGDRDHRRPQEKKKAKGLGKEITLLMQTLNTLSTPEEKLAALCKKYAELLEEHRNSQKQMKLLQKKQSQLVQEKDHLRGEHSKAVLARSKLESLCRELQRHNRSLKEEGVQRAREEEEKRKEVTSHFQVTLNDIQLQMEQHNERNSKLRQENMELAERLKKLIEQYELREEHIDKVFKHKDLQQQLVDAKLQQAQEMLKEAEERHQREKDFLLKEAVESQRMCELMKQQETHLKQQLALYTEKFEEFQNTLSKSSEVFTTFKQEMEKMTKKIKKLEKETTMYRSRWESSNKALLEMAEEKTVRDKELEGLQVKIQRLEKLCRALQTERNDLNKRVQDLSAGGQGSLTDSGPERRPEGPGAQAPSSPRVTEAPCYPGAPSTEASGQTGPQEPTSARA
partner: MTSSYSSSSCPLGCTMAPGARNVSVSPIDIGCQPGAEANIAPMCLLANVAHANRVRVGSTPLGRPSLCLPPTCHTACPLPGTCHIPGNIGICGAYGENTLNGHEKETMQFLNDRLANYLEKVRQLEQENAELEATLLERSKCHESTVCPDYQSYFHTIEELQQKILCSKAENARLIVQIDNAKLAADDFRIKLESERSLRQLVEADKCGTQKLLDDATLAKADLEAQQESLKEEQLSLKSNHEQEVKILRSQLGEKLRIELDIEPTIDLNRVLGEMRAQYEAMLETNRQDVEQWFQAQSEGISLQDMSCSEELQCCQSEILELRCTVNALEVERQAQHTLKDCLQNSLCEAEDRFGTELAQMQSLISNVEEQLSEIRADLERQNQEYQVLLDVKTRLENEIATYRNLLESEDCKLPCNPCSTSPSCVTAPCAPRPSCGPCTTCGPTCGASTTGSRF
B6: Syntenin-2 (Homo sapiens), Q9H190 (parent)
chain: MSSLYPSLEDLKVDQAIQAQVRASPKMPALPVQATAISPPPVLYPNLAELENYMGLSLSSQEVQESLLQIPEGDSTAVSGPGPGQMVAPVTGYSLGVRRAEIKPGVREIHLCKDERGKTGLRLRKVDQGLFVQLVQANTPASLVGLRFGDQLLQIDGRDCAGWSSHKAHQVVKKASGDKIVVVVRDRPFQRTVTMHKDSMGHVGFVIKKGKIVSLVKGSSAARNGLLTNHYVCEVDGQNVIGLKDKKIMEILATAGNVVTLTIIPSVIYEHMVKKLPPVLLHHTMDHSIPDA
partner: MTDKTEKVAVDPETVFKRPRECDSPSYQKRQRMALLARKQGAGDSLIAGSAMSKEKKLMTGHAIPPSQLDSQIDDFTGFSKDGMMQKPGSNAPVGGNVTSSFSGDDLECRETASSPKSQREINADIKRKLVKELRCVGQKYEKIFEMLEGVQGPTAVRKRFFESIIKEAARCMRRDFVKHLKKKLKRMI
B7: Medium-chain acyl-CoA ligase ACSF2, mitochondrial (Homo sapiens), Q96CM8 (parent)
chain: MAVYVGMLRLGRLCAGSSGVLGARAALSRSWQEARLQGVRFLSSREVDRMVSTPIGGLSYVQGCTKKHLNSKTVGQCLETTAQRVPEREALVVLHEDVRLTFAQLKEEVDKAASGLLSIGLCKGDRLGMWGPNSYAWVLMQLATAQAGIILVSVNPAYQAMELEYVLKKVGCKALVFPKQFKTQQYYNVLKQICPEVENAQPGALKSQRLPDLTTVISVDAPLPGTLLLDEVVAAGSTRQHLDQLQYNQQFLSCHDPINIQFTSGTTGSPKGATLSHYNIVNNSNILGERLKLHEKTPEQLRMILPNPLYHCLGSVAGTMMCLMYGATLILASPIFNGKKALEAISRERGTFLYGTPTMFVDILNQPDFSSYDISTMCGGVIAGSPAPPELIRAIINKINMKDLVVAYGTTENSPVTFAHFPEDTVEQKAESVGRIMPHTEARIMNMEAGTLAKLNTPGELCIRGYCVMLGYWGEPQKTEEAVDQDKWYWTGDVATMNEQGFCKIVGRSKDMIIRGGENIYPAELEDFFHTHPKVQEVQVVGVKDDRMGEEICACIRLKDGEETTVEEIKAFCKGKISHFKIPKYIVFVTNYPLTISGKIQKFKLREQMERHLNL
partner: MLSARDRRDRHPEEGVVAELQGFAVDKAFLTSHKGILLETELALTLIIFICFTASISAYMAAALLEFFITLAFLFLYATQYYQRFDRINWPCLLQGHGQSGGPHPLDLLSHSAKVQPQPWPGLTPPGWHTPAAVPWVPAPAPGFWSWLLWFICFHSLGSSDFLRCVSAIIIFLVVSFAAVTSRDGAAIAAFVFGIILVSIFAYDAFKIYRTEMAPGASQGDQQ

Variants of: B1
Conditions: with morn3_human MORN3, Q6PF18

Variant | effect of a mutation on the interaction
G248R | with no effect
G144R | with no effect

Variants of: B2
Conditions: with fhl3_human FHL3, Q13643
Sequence of fhl3_human FHL3, Q13643 (Q13643 whole entry): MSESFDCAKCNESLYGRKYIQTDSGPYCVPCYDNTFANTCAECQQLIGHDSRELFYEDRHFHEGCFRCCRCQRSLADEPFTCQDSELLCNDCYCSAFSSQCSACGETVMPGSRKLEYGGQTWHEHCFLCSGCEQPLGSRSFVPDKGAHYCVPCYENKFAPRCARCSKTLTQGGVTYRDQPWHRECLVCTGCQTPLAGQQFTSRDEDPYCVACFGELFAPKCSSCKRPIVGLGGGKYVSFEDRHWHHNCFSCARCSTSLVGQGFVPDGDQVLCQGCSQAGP

Variant | effect of a mutation on the interaction
T184A | with no effect
R147C | with no effect
L131R | with no effect
M249V | with no effect
H297Y | with no effect
R176W | with no effect
R176Q | with no effect
R231H | with no effect
P66S | with no effect
D79G | with no effect
S39N | with no effect

Variants of: B3
Conditions: with pvr_human PVR

Variant | effect of a mutation on the interaction
T181M | with no effect

Variants of: B4
Conditions: with BCL2L13, Q9BXK5
Sequence of BCL2L13, Q9BXK5 (Q9BXK5 whole entry): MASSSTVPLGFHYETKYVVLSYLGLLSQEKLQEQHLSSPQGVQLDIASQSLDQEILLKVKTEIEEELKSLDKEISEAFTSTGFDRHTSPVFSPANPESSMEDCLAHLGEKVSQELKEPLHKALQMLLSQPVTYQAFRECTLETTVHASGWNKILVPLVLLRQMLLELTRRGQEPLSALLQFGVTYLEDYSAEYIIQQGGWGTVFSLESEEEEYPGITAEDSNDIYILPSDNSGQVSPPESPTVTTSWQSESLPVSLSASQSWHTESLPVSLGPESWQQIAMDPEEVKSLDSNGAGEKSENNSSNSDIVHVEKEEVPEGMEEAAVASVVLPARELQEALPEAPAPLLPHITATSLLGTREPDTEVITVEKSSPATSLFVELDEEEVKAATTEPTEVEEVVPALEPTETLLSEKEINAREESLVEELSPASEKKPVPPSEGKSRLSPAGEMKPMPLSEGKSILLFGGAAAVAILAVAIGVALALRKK

Variant | effect of a mutation on the interaction
P479S | with no effect

Variants of: B5
Conditions: with krt38_human KRT38, O76015

Variant | effect of a mutation on the interaction
S514R | with no effect
P541S | with no effect
R154G | disrupting interaction strength

Variants of: B6
Conditions: with ct457_human CT45A7, P0DMV0

Variant | effect of a mutation on the interaction
V182M | disrupting interaction strength
G242R | disrupting interaction strength
G225R | disrupting interaction strength

Variants of: B7
Conditions: with cklf5_human CMTM5, Q96DZ9

Variant | effect of a mutation on the interaction
G19W | disrupting interaction strength
A34V | disrupting interaction strength
